This experiment concerns the target T1, HERA-GITRL (hexavalent TNF receptor agonist); single-chain GITRL-receptor-binding-domain fused to a silenced … (human, UniProt Q9UNG2 56-177; Q9UNG2 56-177; Q9UNG2 56-177).
T1 construct: glycine-serine based linker, 8 amino acids in length; GITRL (TNFSF18), human, second copy of E56-S177; GITRL (TNFSF18), human, third copy of E56-S177; also called hexavalent HERA-GITRL; scGITRL-RBD-Fc; not shown: Strep-Tag II, C-terminal, kept
The experiment is described as follows: not stated; binding to and dissociation from the GITR-Fc receptors measured in real time, equilibrium binding constants (KD) calculated; instrument and who was immobilised not told in what was shown. As to conditions: both partners purified.

T1 sequence (Q9UNG2 whole entry, the tested form may be a part, one chain of several): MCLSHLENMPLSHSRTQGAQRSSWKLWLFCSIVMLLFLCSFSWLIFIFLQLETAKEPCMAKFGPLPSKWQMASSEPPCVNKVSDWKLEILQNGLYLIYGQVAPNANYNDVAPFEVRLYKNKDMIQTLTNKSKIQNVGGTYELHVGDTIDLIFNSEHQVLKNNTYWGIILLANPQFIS

B1: cynomolgus monkey GITR-Fc (Fc fusion)
chain: QRPTGGPGCGPGRLLLGTGKDARCCRIHPTRCCGDYQGEECCSEWDCVCVQPEFHCGNPCCTTCQHHPCPSGQGVQPQGKFSFGFRCVDCALGTFSRGHDGHCKPWTDCTQFGFLTVFPGNKTHNAVCVPGSPPAEPPG
Consider B1, for which the dissociation constant Kd (in general, the equilibrium constant for the complex coming apart) was 0.602 nM.
